Tested on: MS2 coat protein
Test: apparent KD of MS2 coat protein; higher = weaker reporter binding
Settings: Eterna round: R107
Method: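 RNA-MaP round R107: designed RNA switches with theophylline, tryptophan, arginine or FMN aptamers are transcribed on-chip within common flanks. They are titrated with SNAP-549-labelled MS2 coat protein in RNA-MaP buffer (100 mM Tris pH 7.5, 80 mM KCl, 4 mM MgCl2), without ligand or with the indicated ligand. Median apparent KD per design.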

[1] = input ligand: theophylline 20 uM
[2] = input ligand: theophylline 2 mM
[3] = input ligand: tryptophan 2.4 mM

Sequence	apparent KD of MS2 coat protein (input ligand: arginine 13.2 mM) [µM]	apparent KD of MS2 coat protein [1] [µM]	apparent KD of MS2 coat protein [2] [µM]	apparent KD of MS2 coat protein (input ligand: none) [µM]	apparent KD of MS2 coat protein [3] [µM]
CGAGUAAGAACAAUCGAAUAACGGUUUUCGCGAGGACCGGUACGGCCGCCACUCGUGUGAAAUAACACAUGAGGAUCACCCAUGU [3'end-1]	0.0237	0.0268	0.0273		
CAAGAACAGCCAGAUCUUGGCAGCUGAGAAGGAGCGCGGGAAGCCGCAGGUAGGUCGCUCAGGAAUACAUGAGGAUCACCCAUGU [Beoror]	0.0198	0.0246	0.02	0.0176	0.0172
CAUCGGGCGGUAAAUGGCGGGUACGGUGAUACCAGUUUUUGAUUUAACCCUUGGCAGCACUAUACAUGAGGAUCACCCAUGUAAU [theeternabot_exclusion_MS2_Theo_A_15]	0.0177	0.0232			0.0195
UGGGAAGGAGGAAGGAGCGCCAUAAGGGUGACAGUCUGGGUACAUGAGGAUCACCCAUGUAGGCAGGUAGGUCGCCUAGCUCUCA [XArg-B16]	0.0094	0.0129	0.0129	0.00914	0.00956
ACACGUGAGGAUCAUCCAUGUGCCCAUGAAGGAGCGUGGGAAACCACAGGUAGGUCGCAUGACAUGAGGAUCACCCAUGUUUAUU [#04 Exclusion - Arginine A]	0.0431	0.109	0.105	0.0869	0.091
ACGCCCAGGUAGGCUUAGUGGGAUAUGGAAGGAGCGCCGAUGCAGGCAGGUAGGUCGCCAUAGAACAUGAGGAUCACCCAUGUAA [#05 Same State - Arginine A]	0.0313	0.0379	0.0331	0.0328	0.0271
GCCUCAUGUAGAAGGAGCGUCAGAAGCUACAGACAUGAGGAUCACCCAUGUUAGUUGAUCUGACAGGUAGGUCGCUACAGCAGGA [Arg B SS t7]	0.0267	0.0449	0.0411	0.037	0.0349
ACGAACUGUAGUGAUACCAGACGUACAUGAGGAUCACCCAUGUUGUAAACAUGGUGAAUAGUCCCUUGGCAGCACAGUUAGUUCG [#11 Exclusion-TheophyllineB]	0.162	0.355			0.299
GUAUGGAAACAUACUAUGGUAUCGUGAGAUACCAGUACAGAAAUGUACCCUUGGCAGCUCGCGCAUACAUGAGGAUCACCCAUGU [Ex Theophylline A 10]	0.0164	0.025			0.0195
CAGAACAUGAGGAUCACCCAUGUCAGGGAUACCAGCUCAGACAUGGGCCCUUGGCAGCUCUGUGGCUGACGAAAGUCAGCAUCUG [#17 SameState-TheophyllineA]	0.0175	0.109			0.0195
AUACAUGAGGAUCACCCAUGUGAUGGCCGGCGAGGACCGGUACGGCCGCCACUCGUGAUCCGUCCUGAAAGCAAAGCUCUCAACA [Esraleri]	0.095	0.0853	0.303		
ACAUGAGGAUCACCCAUGUGUGUAAGUCCUCGAGGACCGGUACGGCCGCCACUCGAACGAGUGAAGCCUGAUACUAAGUAUCAGG [SS Trp A s5]	0.0996	0.0207	0.0144	0.0154	0.0187
ACAAUAUUGAGUUUGUCUCAAGUUUCAGAAGGAGCGUGAGGAAUCACAGGUAGGUCGCUGAUAACAUGAGGAUCACCCAUGUAUU [JR_SSArginiA_Sub005]	0.0261	0.0431	0.0451	0.0357	0.035
GGUCAGCAGUCGGCCGCCACUAGUAUACAUGAGGAUCACCCAUGUCCCUUGCGCCUCACCGAUUUUAGGACCGGGACACUGCCUG [theeternabot_exclusion_MS2_Trp_B_9]	0.0251	0.042	0.0402		
CUCAUCCACGCGGCCGCCACUAUAUUGUGGUGUGAAUGUGACGUAUUACAUGAGGAUCACCCAUGUAGGACCGGGCGUGGAUGAG [#07 Exclusion Tryptophan B]	0.0558	0.0862	0.0935		
CUGUGUCCUUCGGCCGCCACUACAUGAGGAUCACCCAUGUCGUUACGGCUCCCAAUGACGCUUUGUAGGACCGGGAAGGAGUAUG [Tienancebe]	0.00927	0.0159	0.0109		
UGUAUGUGAUCUGAUACCAGCUUUGAUAACCUGAGGAUCACCCUGGUAAGGCGAAAGCCAAGCCCUUGGCAGCAGAUCGCAUACU	0.0401	0.0345	0.0219	0.0345	0.0373
AAAAUAAAGGCGGCCGCCACUAGAGUUAGGCUUAUGUACUGGGUAACAUGAGGAUCACCCAUGUAUAGGACCGGGCCAUAAUAAA [Same State - Tryptophan B (Freestyle 2)]	0.028	0.0821	0.073	0.0573	0.0665
GAUCGAAAUAACGUCUAGGAAAACUAGACGCGAGGACCGGUACGGCCGCCACUCGGGUGGCACAUGAGGAUCACCCAUGUAGAUC [#SwitchBubble 5 #GuTurnoff #MS2 3']	0.0694	0.11	0.1		

Sequence	apparent KD of MS2 coat protein (input ligand: arginine 13.2 mM) [µM]	apparent KD of MS2 coat protein [1] [µM]	apparent KD of MS2 coat protein [2] [µM]	apparent KD of MS2 coat protein (input ligand: none) [µM]	apparent KD of MS2 coat protein [3] [µM]
GAAGAGACCUCGGCCGCCACUCGCCAUGAGGAUCUCCCAUGUAACAUGAGGAUCACCCAUGUACAGAGGACCGGGAGGUCCUAGU [Same State Tryptophan B GF 14]	0.0128	0.0391	0.0248	0.0212	0.0501
AUAUUUAACGGAAGGAGCGCGGAAUAAUAAGUGGGUAAACAUGAGGAUCACCCAUGUAAACCGCAGGUAGGUCGCCGAAUAAUAA [AstrosEXyARgB#4]	0.071	0.115	0.0861	0.0894	0.0684
UGGGCAUACAUGAGGAUCACCCAUGUAGAUACCAGCACUAGCCUGUGCCCUUGGCAGCUAACCGGGUCGAGAACUUAGUGCUCCU [Lexele]	0.0109	0.0219			0.0115
UUCAAAGGGAACGGUGCUGGUGACAGAGAUACCAGAGUAGUAAUACUCCCUUGGCAGCUCAGAACAUGAGGAUCACCCAUGUAAU [Exclusion Theophylline A GF22]	0.0185	0.0291	0.0592	0.018	0.0176
AAUUAUCAGUCGGCCGCCACUGACACAUGAGGAUCACCCAUGUAACUUGGGAUAAAUUUAAUAAACAGGACCGGGACAAAGGCUA [JR_ExcTryptoB_Sub011]	0.0366	0.0507	0.0499		
AACUGGAAAAGUGAUACCAGAGACAUGAGGAUCACCCAUGUACAUGAGGAUCACCCAUGUCUCCCUUGGCAGCACAAAAGGGAGA [Exclusion Theophylline B Gf11]	0.0161	0.0376			0.0245
GGUGGCUGGACUGAUACCAGCCACCACCGAUAGACCACAUGAGGAUCACCCAUGUUGGGUGGCCCUUGGCAGCAGUCUAGCUGCC [#1 Same State - Theophylline B Attempt #11 (HarryS)]	0.231	0.727			0.441
GCUUGGGUCGCACGGCCCUGGCGGUGCGAUACCAGCACGGUAACGUGCCCUUGGCAGCGCACAUGAGGAUCACCCAUGUGGUGCG [#1 Exclusion - Theophylline A Attempt #23 (HarryS)]	0.00942	0.0256	0.264	0.0126	0.0124
UUCAGCUAGUCGGCCGCCACUACAAGAGGAUCACCCUUGUAAUCCUAACACUGCUUCGGCAGUGGUAGGACCGGGACUAGCUGAG	0.0151	0.0173	0.0138	0.0144	0.0201
ACAUGAGGAUCACCCAUGUAUGGCGCGGAAGGAGCGUGAUUAAGCACAGGUAGGUCGCUGCGUUGAUCGAGCGUUAGCUCGAUAA [SSArg A #9]	0.0158	0.0251	0.0224	0.019	0.0223
AGCAAGUUCGGAAGGAGCGGUACAUGAGGAUCACCCAUGUAUUCAAUCGUGAUCGGAACGUGCCAGGUAGGUCGCCGAAUGCGUC [XArg-B1]	0.0133	0.0231	0.0159	0.0131	0.015
UUACAUGAGGAUCACCCAUGUCAUACAGAAGGAGCGUCACAUAAGACAGGUAGGUCGCUGUUAUAUCAUACUAUUAUAUCCUCUA [JR_Nu_ExcArginiA_Sub028]	0.022	0.0535	0.0382	0.0404	0.033
ACGCCCGCCUCACAUGAGGAUCACCCAUGUCGAGGACCGGUACGGCCGCCACUCGUCGUCGGUAAUACGGGCGUUGAAUAAUAUA [Atedon]	0.0118	0.0149	0.0144		
UCUUGAGUUUCGGAUACCAGUGUUGUCGAUACAUGAGGAUCACCCAUGUUAGAGGAUGUACACCCUUGGCAGCCGGCUGUGGCGG [zszmullin]	0.0137	0.0219			0.019
ACAUGAGGAUCCGAUACCAGCCACAUGAGGAUCACCCAUGUAGUACAUGAGGAUCACCCAGGCCCUUGGCAGCGGACAUGAGGAU [Exclusion - Theophylline B]	0.0959	0.331			0.149
ACUAGUUGUGCAGAUACCAGACAUGAGGAUCACCCAUGUUUGGGAUCUUCGGAUCUUCCUGUCCCUUGGCAGCUGUACAUCUAGA [Omei Theo B Exc v3]	0.0626	0.178			0.125
UGGUACUAGGCGGCCGCCACUGGGAGAUACAUGAGGAUCACCCAUGUUUAAUGCCGAGAGGCAACUAGGACCGGGCCUAGUACAU	0.0636	0.133	0.127		
GCGGACAUGAGGAUCACCCAUGUAAAUCCUCGAGGACCGGUACGGCCGCCACUCGAACGAGUGGCACGCGAGUGCGCACUCGCGU [aDa]	0.0218	0.0384	0.0297		
AACAUGAGGAUCACCCAUGUCUGAACUGAAGGAGCGCUAAAUAAGGCAGGUAGGUCGCGGAAUUUUGUGUAUAUAUAUAUAUGGG [9.G]	0.0176	0.0342	0.025	0.0271	0.0243

— the supplement of paper PMC9170038
